The labels stand for the following.
B1: Thioredoxin H1 (Arabidopsis thaliana (Mouse-ear cress)), P29448 (parent)
chain: MASEEGQVIACHTVETWNEQLQKANESKTLVVVDFTASWCGPCRFIAPFFADLAKKLPNVLFLKVDTDELKSVASDWAIQAMPTFMFLKEGKILDKVVGAKKDELQSTIAKHLA

The variants in this test derive from B1. The note with it: with cdpkl_arath CPK21, Q9ZSA2.
Chain of cdpkl_arath CPK21, Q9ZSA2 (Q9ZSA2 whole entry): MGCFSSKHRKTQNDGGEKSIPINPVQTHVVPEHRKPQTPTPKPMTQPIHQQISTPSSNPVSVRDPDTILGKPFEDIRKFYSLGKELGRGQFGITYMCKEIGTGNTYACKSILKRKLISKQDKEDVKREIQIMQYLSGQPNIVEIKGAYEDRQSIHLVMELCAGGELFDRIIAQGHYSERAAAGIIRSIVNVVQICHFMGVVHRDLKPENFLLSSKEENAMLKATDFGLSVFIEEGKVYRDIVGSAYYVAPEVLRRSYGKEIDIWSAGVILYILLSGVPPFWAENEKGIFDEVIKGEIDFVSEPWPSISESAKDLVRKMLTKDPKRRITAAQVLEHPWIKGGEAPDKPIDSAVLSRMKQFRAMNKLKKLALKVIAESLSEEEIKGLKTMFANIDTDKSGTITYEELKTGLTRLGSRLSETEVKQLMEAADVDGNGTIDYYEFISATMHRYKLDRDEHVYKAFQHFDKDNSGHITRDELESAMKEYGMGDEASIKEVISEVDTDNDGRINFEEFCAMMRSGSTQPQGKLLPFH
For MASEEGQVIACHTVETWNEQLQKANESKTLVVVDFTASWCGPSRFIAPFFADLAKKLPNVLFLKVDTDELKSVASDWAIQAMPTFMFLKEGKILDKVVGAKKDELQSTIAKHLA [C43S], the “effect of a mutation on the interaction” value is listed as “increasing interaction”.

The record behind these values is IntAct's records for PubMed 23615222.
